For assay [1], the target named is human PD-L1 (hPD-L1), Programmed Death Ligand-1, cell surface expressed (human) (UniProt Q9NZQ7). Put plainly: IHC histoscore (0-300), FFPE RCC sample 1164619B.
Assay [2] shares this target. Put plainly: IHC histoscore (0-300), FFPE NSCLC sample 1080993B.
Assay [3] has the same target. Put plainly: IHC histoscore (0-300), FFPE NSCLC sample 1080766B.
For assay [4] the target is unchanged. Put plainly: IHC histoscore (0-300), FFPE RCC sample 1167809B.
For assay [5] the target is unchanged. Put plainly: IHC histoscore (0-300), FFPE Mel sample T030668.
For assay [6] the target is unchanged. Put plainly: IHC histoscore (0-300), FFPE NSCLC sample 1080754B.
Assay [7] has the same target. Put plainly: IHC histoscore (0-300), FFPE Mel sample T980744.
Assay [8] shares this target. Nature of the assay: IHC histoscore (0-300), FFPE NSCLC sample 1080790.
For assay [9] the target is unchanged. Nature of the assay: IHC histoscore (0-300), FFPE Mel sample 1168657B.
In assay [10] the target is T1, human PD-L1 (hPD-L1), Programmed Death Ligand-1, cell surface expressed (human, UniProt Q9NZQ7 19-290).
T1 construct: whole, on cells; In the IHC assays the cells and tissues were formalin-fixed and paraffin-embedded (FFPE); also called membranous PD-L1
Put plainly: competition flow cytometry on ES-2 cells: unlabelled mAb titrated, then biotin-12A4 at 0.4 ug/ml, streptavidin-PE. As for the experimental part:
Anti-PD-L1 HuMAbs 5F8, 12B7, 3G10, 1B12, 13G4, 10H10, 10A5 and 12A4, and a human IgG1 (huIgG1) isotype control Ab were serially diluted from 10 μg/ml and incubated with hPD-L1-expressing ES-2 ovarian carcinoma cells for 20 minutes at 4° C. Without washing, biotinylated-12A4 Ab was added to a final concentration of 0.4 μg/ml for an additional 20 minutes at 4° C.

Chain of human PD-L1 (hPD-L1), Programmed Death Ligand-1, cell surface expressed (human) (Q9NZQ7 19-290): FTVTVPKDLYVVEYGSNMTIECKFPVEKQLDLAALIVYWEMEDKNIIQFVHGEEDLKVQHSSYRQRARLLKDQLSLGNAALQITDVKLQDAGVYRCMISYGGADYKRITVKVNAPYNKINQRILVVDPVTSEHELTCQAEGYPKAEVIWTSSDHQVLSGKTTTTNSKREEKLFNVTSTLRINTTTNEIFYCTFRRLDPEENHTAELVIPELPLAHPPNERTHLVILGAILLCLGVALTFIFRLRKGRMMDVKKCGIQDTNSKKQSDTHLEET
T1 sequence (Q9NZQ7 19-290): as above

Take “murine anti-human PD-L1 mAb 5H1 (Dong et al., 2002) (antibody)”: the Histoscore Average turned out to be 4 in assay [1]; 12 in assay [2]; 103 in assay [3]; 108 in [4]; 98 in assay [5]; 245 in assay [6]. Further, the values for the Histoscore Average in assay [7], in [8] and in assay [9] were 98, 40 and 0, respectively.

B1: anti-PD-L1 HuMAb 3G10 (antibody, V domains shown)
VH: QVQLVQSGAEVKKPGASVKVSCKASGYTFTDYGFSWVRQAPGQGLEWMGWITAYNGNTNYAQKLQGRVTMTTDTSTSTVYMELRSLRSDDTAVYYCARDYFYGMDVWGQGTTVTVSS
VL: EIVLTQSPATLSLSPGERATLSCRASQSVSSYLVWYQQKPGQAPRLLIYDASNRATGIPARFSGSGSGTDFTLTISSLEPEDFAVYYCQQRSNWPRTFGQGTKVEIK
notes: Human mAb; used unconjugated and FITC-conjugated
Take B1: the “IC50 (read off the curve)” value in assay [10] was ~1 nM.

The values above are taken from patent US20240034793A1 (Bristol-Myers Squibb, published 2024).
